# Measured values from publication PMC9482650, “Quantitative fragmentomics allow affinity mapping of interactomes” (Nature Communications, 2022).
# T1: ARHGEF11, O15085
# T1 sequence (O15085 42-136, limits assumed, looked up): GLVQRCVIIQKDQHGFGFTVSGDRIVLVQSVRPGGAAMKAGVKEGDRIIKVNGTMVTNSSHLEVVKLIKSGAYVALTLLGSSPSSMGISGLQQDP
# T2: DLG3_1, Q92796
# T2 sequence (Q92796 125-227, limits assumed, looked up): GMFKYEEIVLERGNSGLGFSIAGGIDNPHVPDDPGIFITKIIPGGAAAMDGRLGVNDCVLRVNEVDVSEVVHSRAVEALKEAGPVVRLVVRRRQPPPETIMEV
# T3: DLG3_2, Q92796
# T3 sequence (Q92796 221-321, limits assumed, looked up): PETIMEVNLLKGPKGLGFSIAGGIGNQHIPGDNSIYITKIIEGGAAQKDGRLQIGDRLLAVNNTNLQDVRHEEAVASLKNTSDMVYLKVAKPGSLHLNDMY
# T4: GRIP1_5, Q9Y3R0
# T4 sequence (Q9Y3R0 568-668, limits assumed, looked up): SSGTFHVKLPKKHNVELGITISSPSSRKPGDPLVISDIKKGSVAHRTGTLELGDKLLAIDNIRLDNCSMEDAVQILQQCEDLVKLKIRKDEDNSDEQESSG
# T5: LIN7A, O14910
# T5 sequence (O14910 103-200, limits assumed, looked up): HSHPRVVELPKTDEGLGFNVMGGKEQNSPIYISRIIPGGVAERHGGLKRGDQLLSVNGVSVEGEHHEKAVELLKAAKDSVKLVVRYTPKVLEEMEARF
# T6: MPP6, Q9NZW5
# T6 sequence (Q9NZW5 125-219, limits assumed, looked up): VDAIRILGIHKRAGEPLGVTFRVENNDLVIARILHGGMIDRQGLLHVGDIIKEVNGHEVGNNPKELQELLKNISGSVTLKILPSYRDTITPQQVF
# T7: RADIL, Q96JH8
# T7 sequence (Q96JH8 971-1071, limits assumed, looked up): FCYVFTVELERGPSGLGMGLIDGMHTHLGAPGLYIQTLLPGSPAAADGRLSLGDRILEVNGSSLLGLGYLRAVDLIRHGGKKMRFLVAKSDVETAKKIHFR
# T8: SHANK1, Q9Y566
# T8 sequence (Q9Y566 658-767, limits assumed, looked up): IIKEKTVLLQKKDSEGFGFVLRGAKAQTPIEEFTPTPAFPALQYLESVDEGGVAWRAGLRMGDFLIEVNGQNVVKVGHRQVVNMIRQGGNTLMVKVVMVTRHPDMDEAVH
# T9: SIPA1L2, Q9P2F8
# T9 sequence (Q9P2F8 945-1036, limits assumed, looked up): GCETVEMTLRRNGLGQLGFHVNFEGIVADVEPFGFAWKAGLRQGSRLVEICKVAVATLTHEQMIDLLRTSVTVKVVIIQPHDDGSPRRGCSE
# Biological target: AHNAK1, Q09666
# Test: holdup assay
# Parameters: key: below the threshold = too weak to quantify, mostly under pKd 3.1 to 4
# Details: plain residues with an end cap or a label only (N-terminal biotin on a linker: ado-ado)
# AHNAK1, Q09666, sequence (Q09666 4-100): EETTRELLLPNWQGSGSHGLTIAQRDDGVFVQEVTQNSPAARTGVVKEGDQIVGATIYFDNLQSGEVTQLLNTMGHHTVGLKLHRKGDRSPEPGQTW
row,Binder,pKd
1,"LPHGHSTTRV [NLGN4X, Q8N0W4]",below the threshold

# Biological target: T1, ARHGEF11, O15085
# Test: holdup assay
# Parameters: key: below the threshold = too weak to quantify, mostly under pKd 3.1 to 4
# Details: plain residues with an end cap or a label only (N-terminal biotin on a linker: ado-ado)
row,Binder,pKd
1,"LPHGHSTTRV [NLGN4X, Q8N0W4]",4.04

# Biological target: DLG1_1, Q12959
# Test: holdup assay
# Parameters: key: below the threshold = too weak to quantify, mostly under pKd 3.1 to 4
# Details: plain residues with an end cap or a label only (N-terminal biotin on a linker: ado-ado)
row,Binder,pKd
1,"LPHGHSTTRV [NLGN4X, Q8N0W4]",3.82

# Biological target: DLG1_3, Q12959
# Test: holdup assay
# Parameters: key: below the threshold = too weak to quantify, mostly under pKd 3.1 to 4
# Details: plain residues with an end cap or a label only (N-terminal biotin on a linker: ado-ado)
row,Binder,pKd
1,"LPHGHSTTRV [NLGN4X, Q8N0W4]",4.24

# Biological target: T2, DLG3_1, Q92796
# Test: holdup assay
# Parameters: key: below the threshold = too weak to quantify, mostly under pKd 3.1 to 4
# Details: plain residues with an end cap or a label only (N-terminal biotin on a linker: ado-ado)
row,Binder,pKd
1,"LPHGHSTTRV [NLGN4X, Q8N0W4]",below the threshold

# Biological target: T3, DLG3_2, Q92796
# Test: holdup assay
# Parameters: key: below the threshold = too weak to quantify, mostly under pKd 3.1 to 4
# Details: plain residues with an end cap or a label only (N-terminal biotin on a linker: ado-ado)
row,Binder,pKd
1,"LPHGHSTTRV [NLGN4X, Q8N0W4]",3.85

# Biological target: DLG4_2, P78352
# Test: holdup assay
# Parameters: key: below the threshold = too weak to quantify, mostly under pKd 3.1 to 4
# Details: plain residues with an end cap or a label only (N-terminal biotin on a linker: ado-ado)
# DLG4_2, P78352, sequence (P78352 155-259): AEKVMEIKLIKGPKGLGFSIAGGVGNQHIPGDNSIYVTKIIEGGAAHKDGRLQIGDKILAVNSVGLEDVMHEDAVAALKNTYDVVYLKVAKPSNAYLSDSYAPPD
row,Binder,pKd
1,"LPHGHSTTRV [NLGN4X, Q8N0W4]",3.97

# Biological target: DLG4_3, P78352
# Test: holdup assay
# Parameters: key: below the threshold = too weak to quantify, mostly under pKd 3.1 to 4
# Details: plain residues with an end cap or a label only (N-terminal biotin on a linker: ado-ado)
# DLG4_3, P78352, sequence (P78352 306-403): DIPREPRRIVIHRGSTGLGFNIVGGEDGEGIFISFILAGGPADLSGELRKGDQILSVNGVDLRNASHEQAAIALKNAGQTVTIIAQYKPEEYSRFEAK
row,Binder,pKd
1,"LPHGHSTTRV [NLGN4X, Q8N0W4]",4.04

# Biological target: FRMPD3, Q5JV73
# Test: holdup assay
# Parameters: key: below the threshold = too weak to quantify, mostly under pKd 3.1 to 4
# Details: plain residues with an end cap or a label only (N-terminal biotin on a linker: ado-ado)
# FRMPD3, Q5JV73, sequence (Q5JV73 12-100): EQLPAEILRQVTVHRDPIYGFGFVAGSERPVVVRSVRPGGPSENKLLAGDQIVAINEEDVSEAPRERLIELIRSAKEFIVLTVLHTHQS
row,Binder,pKd
1,"LPHGHSTTRV [NLGN4X, Q8N0W4]",below the threshold

# Biological target: GOPC, Q9HD26
# Test: holdup assay
# Parameters: key: below the threshold = too weak to quantify, mostly under pKd 3.1 to 4
# Details: plain residues with an end cap or a label only (N-terminal biotin on a linker: ado-ado)
row,Binder,pKd
1,"LPHGHSTTRV [NLGN4X, Q8N0W4]",4.37

# Biological target: GORASP2, Q9H8Y8
# Test: holdup assay
# Parameters: key: below the threshold = too weak to quantify, mostly under pKd 3.1 to 4
# Details: plain residues with an end cap or a label only (N-terminal biotin on a linker: ado-ado)
row,Binder,pKd
1,"LPHGHSTTRV [NLGN4X, Q8N0W4]",3.99

# Biological target: GRASP, Q7Z6J2
# Test: holdup assay
# Parameters: key: below the threshold = too weak to quantify, mostly under pKd 3.1 to 4
# Details: plain residues with an end cap or a label only (N-terminal biotin on a linker: ado-ado)
# GRASP, Q7Z6J2, sequence (Q7Z6J2 96-193): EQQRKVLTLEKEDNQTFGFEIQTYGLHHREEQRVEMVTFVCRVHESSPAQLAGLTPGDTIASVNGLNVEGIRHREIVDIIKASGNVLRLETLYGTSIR
row,Binder,pKd
1,"LPHGHSTTRV [NLGN4X, Q8N0W4]",4.29

# Biological target: T4, GRIP1_5, Q9Y3R0
# Test: holdup assay
# Parameters: key: below the threshold = too weak to quantify, mostly under pKd 3.1 to 4
# Details: plain residues with an end cap or a label only (N-terminal biotin on a linker: ado-ado)
row,Binder,pKd
1,"LPHGHSTTRV [NLGN4X, Q8N0W4]",below the threshold

# Biological target: IL16_1, Q14005
# Test: holdup assay
# Parameters: key: below the threshold = too weak to quantify, mostly under pKd 3.1 to 4
# Details: plain residues with an end cap or a label only (N-terminal biotin on a linker: ado-ado)
# IL16_1, Q14005, sequence (Q14005 210-306): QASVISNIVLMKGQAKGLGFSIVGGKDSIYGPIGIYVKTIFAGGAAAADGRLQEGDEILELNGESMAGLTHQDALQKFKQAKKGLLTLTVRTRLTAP
row,Binder,pKd
1,"LPHGHSTTRV [NLGN4X, Q8N0W4]",below the threshold

# Biological target: LDB3, O75112
# Test: holdup assay
# Parameters: key: below the threshold = too weak to quantify, mostly under pKd 3.1 to 4
# Details: plain residues with an end cap or a label only (N-terminal biotin on a linker: ado-ado)
# LDB3, O75112, sequence (O75112 1-94): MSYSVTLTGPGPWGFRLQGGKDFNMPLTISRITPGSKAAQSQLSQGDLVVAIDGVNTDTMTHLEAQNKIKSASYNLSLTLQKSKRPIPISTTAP
row,Binder,pKd
1,"LPHGHSTTRV [NLGN4X, Q8N0W4]",below the threshold

# Biological target: T5, LIN7A, O14910
# Test: holdup assay
# Parameters: key: below the threshold = too weak to quantify, mostly under pKd 3.1 to 4
# Details: plain residues with an end cap or a label only (N-terminal biotin on a linker: ado-ado)
row,Binder,pKd
1,"LPHGHSTTRV [NLGN4X, Q8N0W4]",below the threshold

# Biological target: MAGI1_2, Q96QZ7
# Test: holdup assay
# Parameters: key: below the threshold = too weak to quantify, mostly under pKd 3.1 to 4
# Details: plain residues with an end cap or a label only (N-terminal biotin on a linker: ado-ado)
# MAGI1_2, Q96QZ7, sequence (Q96QZ7 456-580): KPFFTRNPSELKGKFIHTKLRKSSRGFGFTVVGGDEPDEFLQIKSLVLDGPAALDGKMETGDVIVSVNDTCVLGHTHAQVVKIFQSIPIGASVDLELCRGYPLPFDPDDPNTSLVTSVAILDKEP
row,Binder,pKd
1,"LPHGHSTTRV [NLGN4X, Q8N0W4]",4.23

# Biological target: MAGI2_2, Q86UL8
# Test: holdup assay
# Parameters: key: below the threshold = too weak to quantify, mostly under pKd 3.1 to 4
# Details: plain residues with an end cap or a label only (N-terminal biotin on a linker: ado-ado)
# MAGI2_2, Q86UL8, sequence (Q86UL8 410-522): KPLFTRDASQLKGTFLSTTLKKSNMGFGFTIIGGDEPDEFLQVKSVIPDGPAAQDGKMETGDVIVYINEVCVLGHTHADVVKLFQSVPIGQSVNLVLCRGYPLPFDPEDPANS
row,Binder,pKd
1,"LPHGHSTTRV [NLGN4X, Q8N0W4]",4.95

# Biological target: MAGI3_2, Q5TCQ9
# Test: holdup assay
# Parameters: key: below the threshold = too weak to quantify, mostly under pKd 3.1 to 4
# Details: plain residues with an end cap or a label only (N-terminal biotin on a linker: ado-ado)
# MAGI3_2, Q5TCQ9, sequence (Q5TCQ9 398-503): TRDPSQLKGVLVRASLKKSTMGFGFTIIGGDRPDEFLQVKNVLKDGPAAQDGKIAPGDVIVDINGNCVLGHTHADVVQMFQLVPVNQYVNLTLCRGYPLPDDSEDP
row,Binder,pKd
1,"LPHGHSTTRV [NLGN4X, Q8N0W4]",5.19

# Biological target: T6, MPP6, Q9NZW5
# Test: holdup assay
# Parameters: key: below the threshold = too weak to quantify, mostly under pKd 3.1 to 4
# Details: plain residues with an end cap or a label only (N-terminal biotin on a linker: ado-ado)
row,Binder,pKd
1,"LPHGHSTTRV [NLGN4X, Q8N0W4]",below the threshold

# Biological target: PDLIM1, O00151
# Test: holdup assay
# Parameters: key: below the threshold = too weak to quantify, mostly under pKd 3.1 to 4
# Details: plain residues with an end cap or a label only (N-terminal biotin on a linker: ado-ado)
# PDLIM1, O00151, sequence (O00151 1-87): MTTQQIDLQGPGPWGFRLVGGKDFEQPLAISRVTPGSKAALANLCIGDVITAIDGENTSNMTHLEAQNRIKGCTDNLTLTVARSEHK
row,Binder,pKd
1,"LPHGHSTTRV [NLGN4X, Q8N0W4]",below the threshold

# Biological target: T7, RADIL, Q96JH8
# Test: holdup assay
# Parameters: key: below the threshold = too weak to quantify, mostly under pKd 3.1 to 4
# Details: plain residues with an end cap or a label only (N-terminal biotin on a linker: ado-ado)
row,Binder,pKd
1,"LPHGHSTTRV [NLGN4X, Q8N0W4]",3.7

# Biological target: SCRIB_2, Q14160
# Test: holdup assay
# Parameters: key: below the threshold = too weak to quantify, mostly under pKd 3.1 to 4
# Details: plain residues with an end cap or a label only (N-terminal biotin on a linker: ado-ado)
# SCRIB_2, Q14160, sequence (Q14160 857-960): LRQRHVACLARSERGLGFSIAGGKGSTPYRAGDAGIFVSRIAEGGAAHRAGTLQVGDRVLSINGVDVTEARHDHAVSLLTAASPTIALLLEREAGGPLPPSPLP
row,Binder,pKd
1,"LPHGHSTTRV [NLGN4X, Q8N0W4]",below the threshold

# Biological target: SCRIB_3, Q14160
# Test: holdup assay
# Parameters: key: below the threshold = too weak to quantify, mostly under pKd 3.1 to 4
# Details: plain residues with an end cap or a label only (N-terminal biotin on a linker: ado-ado)
# SCRIB_3, Q14160, sequence (Q14160 999-1103): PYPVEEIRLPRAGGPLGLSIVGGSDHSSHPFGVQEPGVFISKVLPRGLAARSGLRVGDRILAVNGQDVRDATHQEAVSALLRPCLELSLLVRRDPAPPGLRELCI
row,Binder,pKd
1,"LPHGHSTTRV [NLGN4X, Q8N0W4]",below the threshold

# Biological target: T8, SHANK1, Q9Y566
# Test: holdup assay
# Parameters: key: below the threshold = too weak to quantify, mostly under pKd 3.1 to 4
# Details: plain residues with an end cap or a label only (N-terminal biotin on a linker: ado-ado)
row,Binder,pKd
1,"LPHGHSTTRV [NLGN4X, Q8N0W4]",4.88

# Biological target: T9, SIPA1L2, Q9P2F8
# Test: holdup assay
# Parameters: key: below the threshold = too weak to quantify, mostly under pKd 3.1 to 4
# Details: plain residues with an end cap or a label only (N-terminal biotin on a linker: ado-ado)
row,Binder,pKd
1,"LPHGHSTTRV [NLGN4X, Q8N0W4]",below the threshold

# Biological target: TJP1_2, Q07157
# Test: holdup assay
# Parameters: key: below the threshold = too weak to quantify, mostly under pKd 3.1 to 4
# Details: plain residues with an end cap or a label only (N-terminal biotin on a linker: ado-ado)
# TJP1_2, Q07157, sequence (Q07157 181-274): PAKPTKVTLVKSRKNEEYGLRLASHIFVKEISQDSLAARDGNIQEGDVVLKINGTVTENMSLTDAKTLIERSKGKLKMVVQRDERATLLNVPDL
row,Binder,pKd
1,"LPHGHSTTRV [NLGN4X, Q8N0W4]",below the threshold

# Biological target: TJP2_1, Q9UDY2
# Test: holdup assay
# Parameters: key: below the threshold = too weak to quantify, mostly under pKd 3.1 to 4
# Details: plain residues with an end cap or a label only (N-terminal biotin on a linker: ado-ado)
# TJP2_1, Q9UDY2, sequence (Q9UDY2 24-128): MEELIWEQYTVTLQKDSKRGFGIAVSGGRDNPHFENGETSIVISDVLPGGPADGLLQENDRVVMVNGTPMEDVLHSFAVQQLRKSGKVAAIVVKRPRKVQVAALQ
row,Binder,pKd
1,"LPHGHSTTRV [NLGN4X, Q8N0W4]",4.04
